Assay results from the Human Domainome abundance scans (Beltran et al. 2025).

B1: Protein piccolo, residues 1058 to 1114; numbered along this chain, Q9Y6V0 (parent)
chain: TCPLCKTELNIGSKDPPNFNTCTECKNQVCNLCGFNPTPHLTEIQEWLCLNCQTQRA

Variants of: B1
Assay: abundance fitness (aPCA) (normalised: wild type 0, dead -1); higher = more abundant; growth selection in yeast, the domain comes from the species named
Details: Homo sapiens

Abundance fitness, by site and new letter:
N31: G 0.028; D 0.003; F 0.117; E 0.148; C 0.093; H 0.118; Q 0.014; I -0.121; K 0.12; L 0.072; T -0.173; V 0.045; W -0.19; Y 0.011; M -0.147; S 0.056; R 0.012
L32: C -0.017; H 0.073; Y -0.218; D -0.032; W 0.015; K 0.172; A 0.124; T -0.017; V 0.104; R 0.175; M -0.131; I -0.097; G 0.279; S 0.128; N -0.176; P -0.134
P39: G -0.211; L -0.001; C -0.115; Q 0.099; W -0.303; N -0.214; K 0.193; F 0.025; V 0.092; Y -0.131; T -0.005; H -0.393; I -0.013; S 0.069; R 0.008; D -0.117; A 0.018
H40: K -0.06; T 0.185; S 0.156; M 0.004; R 0.093; Q -0.065; V 0.051; P 0.085; C 0.046; Y -0.13; F -0.105; L -0.02; W -0.206; A 0.076; I -0.018; E -0.065
C30: D -0.499; S -0.429; F -0.991; T -0.597; N -0.612; Y -1.03; L -0.971; H -0.17; I -0.887; G -0.584; P -0.807; M -0.734; Q -0.619; R -0.541; A -0.562; V -0.594; E -0.532; W -1
T38: I -0.143
W47: F -0.065; Q -0.09; L 0.056; C -0.134; M -0.06; Y -0.493; H -0.135; T -0.195; S -0.03; G 0.056; K -0.111; I -0.049; N -0.354; A -0.102; E 0.031; P -0.039; D 0.006
L41: K 0.176; N 0.128; P -0.037; S 0.033; H -0.247; E -0.015; A 0.117; M -0.189; F 0.149; D 0.004; W -0.133; T 0.109; Q 0.007; C 0.004; Y 0.081; R 0.2; V 0.044; I 0.188
N36: M 0.033; V 0.068; H 0.313; K 0.08; G 0.038; A -0.097; D -0.093; I -0.129; S -0.12; E 0.099; F 0.044; T -0.28; C -0.054; Q -0.011; W -0.08
Q45: K 0.268; P -0.141; W 0.233; D -0.254; F -0.127; M -0.015; Y 0.047; V 0.046; N 0.016; L -0.093; R -0.003; H -0.357; I -0.047; E -0.38; T -0.202; G 0.037; S -0.037
P37: W -0.012; R 0.032; E 0.138; L -0.023; G 0.039; K -0.054; C 0.05; T 0.079; Y -0.451; S 0.016; Q 0.097; V 0.14; D 0.247; M -0.098; A -0.02
V29: S -0.265; P -0.545; F -0.217; H -0.1; D -0.32; K -0.326; T -0.118; W -0.131; N -0.199; Y -0.082; Q -0.212; C 0.028; L -0.284; E -0.178; R -0.148; I -0.241; A -0.064; G -0.198; M -0.039
Q28: W -0.115; T -0.015; S 0.007; V -0.033; P -0.099; K -0.265; N -0.125; M 0.186; Y -0.179; L -0.078; I -0.579; R 0.004
T42: I -0.105; C 0.064; W -0.166; P -0.137; L -0.091; K -0.056; G 0.122; S -0.011; N 0.097; H 0.123; M -0.253; D -0.015; E -0.122; Y -0.301; V 0.073; Q 0.062; A 0.055
C33: P -0.795; L -0.819; M -0.812; Q -0.623; S -0.646; V -0.743; T -0.952; F -0.92; Y -1.26; N -0.641; A -0.588; K -0.822; E -0.349; D -0.336; I -0.933; R -0.729; H 0.076; W -1.01
I44: Q 0.074; E 0.146; C 0.026; P 0.126; A -0.022; M -0.214; N -0.144; Y -0.274; D -0.38; F 0.155; G 0.02; K 0.247; T -0.273; W -0.312; V -0.014; S 0.045; R -0.138; H -0.166
F35: P 0.285; W -0.288; G 0.175; L 0.175; S 0.236; V 0.108; Y 0.022; A 0.139; N 0.066; Q 0.25; H 0.275; T 0.298; K 0.255; E 0.275; M 0.291; C 0.019; R 0.21; D 0.218
E43: A -0.048; S -0.2; I -0.301; F -0.289; L -0.398; N -0.123; V -0.202; G 0.003; W -0.09; K -0.003; M -0.191; H -0.671; Q -0.167; Y -0.443; R 0.11; D -0.096; T -0.091
E46: F -0.363; A -0.176; D -0.415; W -0.401; T -0.083; K -0.079; R -0.085; Y -0.349; V -0.033; G -0.042; L -0.124; C -0.292; Q 0.007
G34: E -0.292; Y -0.15; Q -0.072; V -0.037; D -0.075; F -0.035; M -0.643; L 0.043; I -0.885; N -0.925; T -1.02; P -0.63; A -0.083; S -0.106; H -0.37; R -0.102; W -0.242; K -0.794
L48: N -0.063; H -0.177; S -0.063; A -0.051; K -0.245; R -0.079; D -0.297; P -0.318; F 0.09; T -0.089; V -0.165; E -0.131; G -0.355; C 0.164; M -0.312; Q -0.274; I -0.105
